Consider 2 molecules from publication PMC6604206, “Cascade synthesis of uridine-5′-diphosphate glucuronic acid by coupling multiple whole cells expressing hyperthermophilic enzymes” (Microbial Cell Factories, 2019).

The target of data set [1] is T1, PiUDH (Pyrobaculum islandicum, UniProt A1RUM9).
T1 construct: gene Pisl_1505; N-terminal His6 tag, codon-optimised gene, pET15b, whole E. coli BL21(DE3) cells
The data set is described as follows: whole-cell conversion, PAMN-HPLC and ESI-MS of UDP-GlcA. Conditions: BL21-PiUDH whole cells, NAD+ varied 0-1.2 mM, 2.3 mM UDP-Glc, sodium phosphate. It counts as cell-based.

Substrate in data set [2]: O=P(O)(O)O[C@H]1O[C@H](CO)[C@@H](O)[C@H](O)[C@H]1O
The data set is described as follows: purified protein. It counts as biochemical, Sulfurisphaera tokodaii. The note with it: 3 mM UTP, 20 mM MgCl2, 50 mM Tris-HCl pH 7.5, 80 °C (also measured at 37 °C).

T1 sequence (A1RUM9 entry or part of it): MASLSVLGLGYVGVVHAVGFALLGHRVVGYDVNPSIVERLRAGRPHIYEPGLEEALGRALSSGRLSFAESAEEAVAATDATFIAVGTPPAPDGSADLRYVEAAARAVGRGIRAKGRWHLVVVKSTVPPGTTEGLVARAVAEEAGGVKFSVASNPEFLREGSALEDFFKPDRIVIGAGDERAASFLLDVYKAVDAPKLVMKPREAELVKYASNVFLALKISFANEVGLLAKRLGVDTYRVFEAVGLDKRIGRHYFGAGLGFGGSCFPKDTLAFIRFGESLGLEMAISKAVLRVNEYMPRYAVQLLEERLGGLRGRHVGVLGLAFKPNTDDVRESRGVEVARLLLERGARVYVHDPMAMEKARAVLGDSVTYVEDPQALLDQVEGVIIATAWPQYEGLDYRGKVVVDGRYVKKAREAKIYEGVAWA

Turning to `NC(=O)c1ccc[n+]([C@@H]2O[C@H](COP(=O)(O)OP(=O)(O)OC[C@H]3O[C@@H](n4cnc5c(N)ncnc54)[C@H](O)[C@@H]3O)[C@@H](O)[C@H]2O)c1` [NAD^+], the “whole-cell conversion, PAMN-HPLC and ESI-MS of UDP-GlcA” value in data set [1] is “The synthetic efficiency showed a positive correlation with the concentration of NAD^+”.

B1: StUSP (Sulfurisphaera tokodaii str. 7) (protein)
chain: MKAFILAAGSGERLEPITHTRPKAFVPILSKPLIEYQIEYLRKCGIRDITVIVSSKNKEYFEKKLKEISIVTQKDDIKGTGAAILSAKFNDEALIIYGDLFFSNEKEICNIITLKENAIIGVKVSNPKDYGVLVLDNQNNLSKIIEKPEIPPSNLINAGIYKLNSDIFTYLDKISISERGELELTDAINLMAKDHRVKVIEYEGYWMDIGKPWNIIDVNKWALDNLVFSQNLGNVEDNVKIKGKVIIEEDAEIKSGTYIEGPVYIGKGSEIGPNSYLRPYTILVEKNKIGASVEVKESVIMEGSKIPHLSYVGDSVIAEDVNFGAGTLIANLRFDEKEVKVNVKGKRISSGRRKLGAFIGGHVRTGINVTILPGVKIGAYARIYPGAVVNRDVGYGEFFKV
As to B1, in data set [2], the Km (in general, the substrate concentration at which the rate is half of its maximum) was determined as 1474 ± 225 µM and the maximal velocity (Vmax) (usually the rate approached at saturating substrate) is 14500 ± 227 µmol/min/mg.
